Non-standard residues stand in square brackets, D forms with d. Cha = N[C@@H](CC1CCCCC1)C(=O)O
Key:
[1] = Transmission electron microscopy (TEM) of peptide nanofibers; assay type: physicochemical; settings: TEM images (13 for IVFK, 10 for IVZK), distribution curve; IVZK shows three types of average diameter, 8.6 nm most abundant, 4.0 nm single monomer fiber
Description: The TEM studies were carried out on two different instruments; Tecnai G2 Spirit Twin with accelerating voltage of 120 kV and FEI Titan G2 80-300 CT with 300 kV emission gun. The Cryo TEM imaging was performed in low dose mode by using FEI's Titan Krios operating at 300 kV. The TEM samples for peptide nanofiber were prepared from diluted peptide hydrogel in water. One drop of this solution was then introduced on a carbon coated copper grid that has been treated with glow discharge plasma before being used. The drop was then kept for 10 minutes before being blotted using filter paper. To get a better contrast, the grid was stained using 2% uranyl acetate for 1 minute and then was dried for at least one day before imaging. The diameter of IVFK and IVZK peptide nanofibers were measured using an image-analysis software ImageJ from 13 and 10 TEM images, respectively. A size distribution histogram for each peptide nanofiber was created in Origin to calculate the average diameter of both peptides. See e.g. FIG. 1B.

[2] = Peptide hydrogel preparation / self-assembly (gelation); assay type: physicochemical; settings: FIG. 1A
Description: Lyophilized peptides were dissolved in milliQ water and vortexed to get a homogenous solution. Subsequently, 10× phosphate buffered saline at the final concentration of 1× was added to the peptide solution and vortexed shortly. Gelation occurred within few seconds to minutes or hours depending on the peptide sequence.

Substance	average fiber diameter [1]	self-assembly into hydrogel [2]
Ac-IVFK-NH2	10.3 nm	self-assemble into macromolecular nanofibrous hydrogels
Ac-IVOK-NH2 (Ac-IV[Cha]K-NH2; SMILES CC[C@H](C)[C@H](NC(C)=O)C(=O)N[C@H](C(=O)N[C@@H](CC1CCCCC1)C(=O)N[C@@H](CCCCN)C(N)=O)C(C)C) [IVZK, ultrashort self-assembling peptide; Z undefined, probably cyclohexylalanine]		self-assemble into macromolecular nanofibrous hydrogels
